Legend:
[1] = target: T1, Interferon regulatory factor 3 (IRF3), as HAVI-Fluc-IRF3 and Rluc-IRF3-Flag, Q14653; experiment: pull-down; DLR-PD (dual luciferase reporter pull-down): both proteins co-expressed in HEK293; lysate in passive lysis buffer on Streptavidin MagneSphere Paramagnetic Particles in PBS, 30 m to 1 h, room temperature; two washes PBS with 1% Nonidet P 40, one with PBS; the biotinylated HAVI-tagged protein is held, Fluc and Rluc activity read on the beads; in some samples eYFP-MAVS or other activators (IRF3) or HCV …; settings: remark: other sources report otherwise
T1 chain: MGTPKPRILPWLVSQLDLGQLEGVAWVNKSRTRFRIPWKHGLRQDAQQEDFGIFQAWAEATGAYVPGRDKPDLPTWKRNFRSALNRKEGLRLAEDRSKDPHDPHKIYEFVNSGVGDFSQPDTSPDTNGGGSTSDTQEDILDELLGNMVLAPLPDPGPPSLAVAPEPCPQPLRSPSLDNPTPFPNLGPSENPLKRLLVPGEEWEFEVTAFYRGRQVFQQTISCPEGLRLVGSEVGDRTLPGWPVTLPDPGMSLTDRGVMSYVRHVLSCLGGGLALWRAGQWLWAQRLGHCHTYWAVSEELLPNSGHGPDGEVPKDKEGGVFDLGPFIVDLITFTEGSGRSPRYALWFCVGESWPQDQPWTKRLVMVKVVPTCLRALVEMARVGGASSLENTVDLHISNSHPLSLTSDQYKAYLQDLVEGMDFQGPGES

[2] = target: Mitochondrial antiviral signaling protein (MAVS), as HAVI-Fluc-MAVS and Rluc-MAVS-Flag, Q7Z434; experiment: as above; settings: remark: other sources report otherwise
[3] = target: MAVS cleaved by HCV NS3/4A (HAVI-Fluc-MAVS and Rluc-MAVS co-expressed with NS3/4A); experiment: pull-down; DLR-PD (dual luciferase reporter pull-down): both proteins co-expressed in HEK293; lysate in passive lysis buffer on Streptavidin MagneSphere Paramagnetic Particles in PBS, 30 m to 1 h, room temperature; two washes PBS with 1% Nonidet P 40, one with PBS; the biotinylated HAVI-tagged protein is held, Fluc and Rluc activity read on the beads; in some samples eYFP-MAVS or other activators (IRF3) or HCV NS3/4A (MAVS) co-expressed

B1: Interferon regulatory factor 3 (IRF3), as HAVI-Fluc-IRF3 and Rluc-IRF3-Flag, Q14653 1-427 (natural protein)
chain: T1 chain
modifications: here or on the partner: biotin on a specific lysine residue of the Avi tag (by co-expressed BirA), on the HAVI-Fluc copy; biotin on a specific lysine residue of the Avi tag (by co-expressed BirA), on the HAVI-Fluc copy
B1 showed an activity ratio of Rluc/Fluc on the beads (10 ng MAVS vector, as the sentence says) (Rluc/Fluc activity ratio) [1] of 0.01, an activity ratio of Rluc/Fluc on the beads (100 ng MAVS vector) (Rluc/Fluc activity ratio) [1] of 0.75 and a fold increase of the IRF3 dimerization ratio (overexpressed IKKε) [1] of under 1000 fold. It also gave a fold of the percentage of Rluc on the beads over the negative control (10 ng of the MAVS vector) [1] of 27 fold.

B2: Mitochondrial antiviral signaling protein (MAVS), as HAVI-Fluc-MAVS and Rluc-MAVS-Flag, Q7Z434 1-540 (natural protein)
chain: MPFAEDKTYKYICRNFSNFCNVDVVEILPYLPCLTARDQDRLRATCTLSGNRDTLWHLFNTLQRRPGWVEYFIAALRGCELVDLADEVASVYQSYQPRTSDRPPDPLEPPSLPAERPGPPTPAAAHSIPYNSCREKEPSYPMPVQETQAPESPGENSEQALQTLSPRAIPRNPDGGPLESSSDLAALSPLTSSGHQEQDTELGSTHTAGATSSLTPSRGPVSPSVSFQPLARSTPRASRLPGPTGSVVSTGTSFSSSSPGLASAGAAEGKQGAESDQAEPIICSSGAEAPANSLPSKVPTTLMPVNTVALKVPANPASVSTVPSKLPTSSKPPGAVPSNALTNPAPSKLPINSTRAGMVPSKVPTSMVLTKVSASTVPTDGSSRNEETPAAPTPAGATGGSSAWLDSSSENRGLGSELSKPGVLASQVDSPFSGCFEDLAISASTSLGMGPCHGPEENEYKSEGTFGIHVAENPSIQLLEGNPGPPADPDGGPRPQADRKFQEREVPCHRPSPGALWLQVAVTGVLVVTLLVVLYRRRLH
modifications: here or on the partner: biotin on a specific lysine residue of the Avi tag (by co-expressed BirA), on the HAVI-Fluc copy; biotin on a specific lysine residue of the Avi tag (by co-expressed BirA), on the HAVI-Fluc copy
B2 gave an activity ratio of Rluc/Fluc on the beads (Rluc/Fluc activity ratio) [2] of 0.28, a fold of the percentage of Rluc on the beads over the three negative controls [2] of over 6 fold and a percentage of Rluc on the beads compared with the cell lysate [2] of 0.13%.

B3: Rluc-TRAF3-Flag, Q13114 1-568 (natural protein)
chain: MESSKKMDSPGALQTNPPLKLHTDRSAGTPVFVPEQGGYKEKFVKTVEDKYKCEKCHLVLCSPKQTECGHRFCESCMAALLSSSSPKCTACQESIVKDKVFKDNCCKREILALQIYCRNESRGCAEQLMLGHLLVHLKNDCHFEELPCVRPDCKEKVLRKDLRDHVEKACKYREATCSHCKSQVPMIALQKHEDTDCPCVVVSCPHKCSVQTLLRSELSAHLSECVNAPSTCSFKRYGCVFQGTNQQIKAHEASSAVQHVNLLKEWSNSLEKKVSLLQNESVEKNKSIQSLHNQICSFEIEIERQKEMLRNNESKILHLQRVIDSQAEKLKELDKEIRPFRQNWEEADSMKSSVESLQNRVTELESVDKSAGQVARNTGLLESQLSRHDQMLSVHDIRLADMDLRFQVLETASYNGVLIWKIRDYKRRKQEAVMGKTLSLYSQPFYTGYFGYKMCARVYLNGDGMGKGTHLSLFFVIMRGEYDALLPWPFKQKVTLMLMDQGSSRRHLGDAFKPDPNSSSFKKPTGEMNIASGCPVFVAQTVLENGTYIKDDTIFIKVIVDTSDLPDP
modifications: here or on the partner: biotin on a specific lysine residue of the Avi tag (by co-expressed BirA), on the HAVI-Fluc copy
For B3, the activity ratio of Rluc/Fluc on the beads (Rluc/Fluc activity ratio) [2] was 2.29, the fold of the percentage of Rluc on the beads over the three negative controls [2] was over 26 fold and the percentage of Rluc on the beads compared with the cell lysate [2] was 1.85%.

B4: Rluc-TRAF3-Flag (natural protein)
chain: B3 chain
For B4, the activity ratio of Rluc/Fluc on the beads (100 ng NS3/4A vector) (Rluc/Fluc activity ratio) [3] was 0.956.

— article PMC3198426
